Values of other authors, collected in publication PMC12060137.

Molecular target: TfR1 (Homo sapiens) (UniProt P02786)
Sequence (P02786 89-760): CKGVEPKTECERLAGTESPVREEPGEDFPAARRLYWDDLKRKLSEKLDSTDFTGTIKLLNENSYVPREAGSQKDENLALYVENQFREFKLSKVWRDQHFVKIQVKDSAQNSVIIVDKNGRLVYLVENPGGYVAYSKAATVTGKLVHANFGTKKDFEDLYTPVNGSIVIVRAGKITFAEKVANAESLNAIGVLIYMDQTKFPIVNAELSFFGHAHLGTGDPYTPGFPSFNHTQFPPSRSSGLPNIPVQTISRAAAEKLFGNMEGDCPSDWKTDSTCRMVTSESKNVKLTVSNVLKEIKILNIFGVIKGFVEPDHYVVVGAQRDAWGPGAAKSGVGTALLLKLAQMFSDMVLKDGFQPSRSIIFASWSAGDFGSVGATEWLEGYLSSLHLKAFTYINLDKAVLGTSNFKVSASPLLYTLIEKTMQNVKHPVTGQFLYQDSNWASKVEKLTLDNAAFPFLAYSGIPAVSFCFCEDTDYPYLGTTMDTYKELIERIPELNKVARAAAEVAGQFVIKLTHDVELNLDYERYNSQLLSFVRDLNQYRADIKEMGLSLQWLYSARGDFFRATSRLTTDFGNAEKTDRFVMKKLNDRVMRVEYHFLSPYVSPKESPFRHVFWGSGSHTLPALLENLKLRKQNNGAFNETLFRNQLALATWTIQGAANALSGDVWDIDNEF

Sequence of HFt-W4 ferritin nanoparticle (P02794 2-183): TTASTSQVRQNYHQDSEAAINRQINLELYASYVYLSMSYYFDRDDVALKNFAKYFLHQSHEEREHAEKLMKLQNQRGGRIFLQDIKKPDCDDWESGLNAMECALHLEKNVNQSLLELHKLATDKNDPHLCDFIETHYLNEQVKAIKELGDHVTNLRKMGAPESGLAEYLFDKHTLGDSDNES

- Kd: 25 nM
Substance: HFt-W4 ferritin nanoparticle (from UniProt P02794)
